# Experimental data as given in article PMC5902190 (Biochemistry, 2017).
# Where two headings read alike, the source gives them in different places.
# Legend:
# Test in all cases: ATP/PPi exchange rate against MLP concentration
# [1] = biological target: EntF, enterobactin nonribosomal peptide synthetase (E. coli) (UniProt P11454)
# [2] = biological target: T1, EntF, enterobactin nonribosomal peptide synthetase (E. coli, UniProt P11454 1-1293)
# [3] = biological target: T1, EntF, enterobactin nonribosomal peptide …; remark: listed apart in the source
# T1 sequence (P11454 whole entry): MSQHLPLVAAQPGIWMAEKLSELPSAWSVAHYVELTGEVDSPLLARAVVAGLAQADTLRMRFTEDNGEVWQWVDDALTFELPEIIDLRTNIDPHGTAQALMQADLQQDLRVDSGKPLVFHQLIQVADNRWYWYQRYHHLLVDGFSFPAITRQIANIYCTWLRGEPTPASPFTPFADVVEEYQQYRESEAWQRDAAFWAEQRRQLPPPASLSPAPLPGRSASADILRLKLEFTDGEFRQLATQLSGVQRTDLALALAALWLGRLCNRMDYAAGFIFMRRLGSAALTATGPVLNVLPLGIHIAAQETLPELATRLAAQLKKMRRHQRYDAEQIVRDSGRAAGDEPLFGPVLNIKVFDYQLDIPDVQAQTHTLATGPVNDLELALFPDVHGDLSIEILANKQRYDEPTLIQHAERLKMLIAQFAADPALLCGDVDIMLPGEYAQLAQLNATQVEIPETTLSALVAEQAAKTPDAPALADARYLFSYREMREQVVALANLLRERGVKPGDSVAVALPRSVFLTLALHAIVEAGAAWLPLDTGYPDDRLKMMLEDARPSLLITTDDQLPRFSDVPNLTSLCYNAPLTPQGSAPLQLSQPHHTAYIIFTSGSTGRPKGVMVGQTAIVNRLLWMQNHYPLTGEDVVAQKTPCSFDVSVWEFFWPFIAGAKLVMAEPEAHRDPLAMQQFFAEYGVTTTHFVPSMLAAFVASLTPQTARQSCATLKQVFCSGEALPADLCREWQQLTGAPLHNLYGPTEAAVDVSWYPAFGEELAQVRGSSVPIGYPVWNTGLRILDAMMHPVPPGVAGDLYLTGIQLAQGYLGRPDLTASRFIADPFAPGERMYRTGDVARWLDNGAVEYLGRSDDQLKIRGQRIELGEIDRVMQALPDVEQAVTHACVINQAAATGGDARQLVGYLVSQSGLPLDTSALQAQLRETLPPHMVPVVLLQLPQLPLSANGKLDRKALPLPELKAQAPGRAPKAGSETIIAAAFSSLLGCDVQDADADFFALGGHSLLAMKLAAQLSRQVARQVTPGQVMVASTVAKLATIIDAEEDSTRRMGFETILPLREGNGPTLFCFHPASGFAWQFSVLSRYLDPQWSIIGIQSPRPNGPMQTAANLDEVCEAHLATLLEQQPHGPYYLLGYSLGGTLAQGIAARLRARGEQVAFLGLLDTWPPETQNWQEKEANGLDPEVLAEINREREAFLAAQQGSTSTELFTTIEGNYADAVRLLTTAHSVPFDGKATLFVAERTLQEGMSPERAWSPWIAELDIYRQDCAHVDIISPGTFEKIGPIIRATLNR
# Chain of EntF, enterobactin nonribosomal peptide synthetase (E. coli) (P11454 whole entry): as above
Molecule,Kd [3] [nM],further results
"VioN, MbtH-like protein of viomycin biosynthesis (purified, tag cleaved) (natural protein)",,Kd [1]: 200 nM
"MbtH, MbtH-like protein of mycobactin biosynthesis (purified, tag cleaved) (natural protein) MSTNPFDDDNGAFFVLVNDEDQHSLWPVFADIPAGWRVVHGEASRAACLDYVEKNWTDLRPKSLRDAMVED",,Kd [2]: 54.6 ± 8 nM
"MXAN_3118, orphan MbtH-like protein (purified, tag cleaved) (natural protein, Myxococcus xanthus DK1622, UniProt Q1D7Q2 1-71, looked up) MTDEREDTTVYKVVVNHEEQYSIWPADRENALGWKDAGKQGLKAECLEYIKEVWTDMRPLSLRKKMEELKS",166 ± 29,
"BSU31959, MbtH-like protein of corynebactin biosynthesis (purified, tag cleaved) (natural protein, Bacillus subtilis strain 168, UniProt C0H3Q6 1-69, looked up) MANPFENADGTYLVLVNEEGQYSLWPGFIDVPSGWTVVHEQKGREACLDYIQSHWSDMRPNSLKTVENV",310 ± 69,
"CmnN, MbtH-like protein of capreomycin biosynthesis (purified, tag cleaved) (natural protein, Saccharothrix mutabilis subsp. capreolus, UniProt A6YEI5 1-62, looked up) MDTYLVVVNHEEQYSVWPADRPLPAGWRAEGTSGDKEQCLAHIETVWTDMRPLSVRRRAEAV",150 ± 7,
